One assay has as its target T1, P8SHb.
T1 chain: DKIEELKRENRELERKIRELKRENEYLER
Nature of the assay: two-hybrid library CCNG1.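 Also: natural log of median RNA to DNA barcode read ratio; higher means stronger binding.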

Another assay concerns the target T2, P9SHb.
T2 chain: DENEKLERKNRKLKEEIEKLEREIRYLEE
Nature of the assay: two-hybrid library CCNG1.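 Also: natural log of median RNA to DNA barcode read ratio; higher means stronger binding.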

The target in the next assay is T3, 4H626-bH.
T3 chain: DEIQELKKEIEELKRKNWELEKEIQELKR
Nature of the assay: two-hybrid library CCNG1.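 Also: natural log of median RNA to DNA barcode read ratio; higher means stronger binding.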

The next assay deals with T4, 4H3858-bH.
T4 chain: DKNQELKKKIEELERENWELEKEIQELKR
In words: two-hybrid library CCNG1.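 Also: natural log of median RNA to DNA barcode read ratio; higher means stronger binding.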

A further assay addresses T5, 4H850-bH.
T5 chain: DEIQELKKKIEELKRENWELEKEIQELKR
Nature of the assay: two-hybrid library CCNG1.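 Also: natural log of median RNA to DNA barcode read ratio; higher means stronger binding.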

The next assay addresses T6, 4H591-bH.
T6 chain: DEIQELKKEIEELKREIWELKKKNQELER
In words: two-hybrid library CCNG1.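 Also: natural log of median RNA to DNA barcode read ratio; higher means stronger binding.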

In the next assay the target is T7, 4H906-bH.
T7 chain: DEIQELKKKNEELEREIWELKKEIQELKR
Nature of the assay: two-hybrid library CCNG1.

The target in a further assay is T8, 4H3628-bH.
T8 chain: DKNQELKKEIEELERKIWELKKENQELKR
In words: two-hybrid library CCNG1.

The next assay deals with T9, 4H3974-bH.
T9 chain: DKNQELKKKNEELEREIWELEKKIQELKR
Nature of the assay: two-hybrid library CCNG1.

The target in another assay is T10, 4H3926-bH.
T10 chain: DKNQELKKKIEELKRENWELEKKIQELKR
Nature of the assay: two-hybrid library CCNG1.

Another assay addresses T11, 4H570-bH.
T11 chain: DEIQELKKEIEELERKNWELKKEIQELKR
Nature of the assay: two-hybrid library CCNG1.

Another assay has as its target T12, 4H3817-bH.
T12 chain: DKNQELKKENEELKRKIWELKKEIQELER
Nature of the assay: two-hybrid library CCNG1.

The next assay concerns the target T13, 4H349-bH.
T13 chain: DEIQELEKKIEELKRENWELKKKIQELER
Nature of the assay: two-hybrid library CCNG1.

In a further assay the target is T14, 4H2931-bH.
T14 chain: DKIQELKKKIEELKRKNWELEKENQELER
In words: two-hybrid library CCNG1.

The target of a further assay is T15, 4H3041-bH.
T15 chain: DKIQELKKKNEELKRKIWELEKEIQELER
In words: two-hybrid library CCNG1.

Another assay addresses T16, 4H3381-bH.
T16 chain: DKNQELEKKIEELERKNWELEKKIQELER
Nature of the assay: two-hybrid library CCNG1.

In another assay the target is T17, 4H949-bH.
T17 chain: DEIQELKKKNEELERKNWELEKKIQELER
In words: two-hybrid library CCNG1.

The next assay concerns the target T18, 4H730-bH.
T18 chain: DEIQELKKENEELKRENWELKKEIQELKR
Nature of the assay: two-hybrid library CCNG1.

The next assay deals with T19, 4H796-bH.
T19 chain: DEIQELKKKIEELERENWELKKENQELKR
Nature of the assay: two-hybrid library CCNG1.

A further assay deals with T20, 4H3297-bH.
T20 chain: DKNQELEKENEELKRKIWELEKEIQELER
Nature of the assay: two-hybrid library CCNG1.

Another assay deals with T21, 4H56-bH.
T21 chain: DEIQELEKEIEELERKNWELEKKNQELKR
Nature of the assay: two-hybrid library CCNG1.

Another assay deals with T22, 4H3364-bH.
T22 chain: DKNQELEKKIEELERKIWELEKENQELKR
Nature of the assay: two-hybrid library CCNG1.

In the next assay the target is T23, O9.
T23 chain: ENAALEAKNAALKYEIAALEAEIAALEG
Nature of the assay: two-hybrid library CC0. The note with it: mean of both orientations.

For another assay, the target named is T24, O6.
T24 chain: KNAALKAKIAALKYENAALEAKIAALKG
Nature of the assay: two-hybrid library CC0. Conditions: mean of both orientations.

In a further assay the target is T25, O7.
T25 chain: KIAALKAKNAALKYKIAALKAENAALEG
In words: two-hybrid library CC0. Conditions: mean of both orientations.

A further assay has as its target T26, O8.
T26 chain: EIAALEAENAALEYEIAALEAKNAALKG
In words: two-hybrid library CC0. The note with it: mean of both orientations.

Another assay addresses T27, 4H797-bN.
T27 chain: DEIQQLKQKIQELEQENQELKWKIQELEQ
Nature of the assay: two-hybrid library CCNG1.

The target of a further assay is T28, 4H717-bN.
T28 chain: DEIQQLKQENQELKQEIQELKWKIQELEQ
In words: two-hybrid library CCNG1.

In another assay the target is T29, 4H967-bN.
T29 chain: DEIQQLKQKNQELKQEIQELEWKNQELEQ
Nature of the assay: two-hybrid library CCNG1.

In the next assay the target is T30, 4H953-bN.
T30 chain: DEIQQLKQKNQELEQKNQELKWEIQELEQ
In words: two-hybrid library CCNG1.

The next assay has as its target T31, 4H607-bN.
T31 chain: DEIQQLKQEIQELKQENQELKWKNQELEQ
Nature of the assay: two-hybrid library CCNG1.

The next assay concerns the target T32, 4H754-bN.
T32 chain: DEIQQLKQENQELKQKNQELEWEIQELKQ
In words: two-hybrid library CCNG1.

The target in the next assay is T33, 4H918-bN.
T33 chain: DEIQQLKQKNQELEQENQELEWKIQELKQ
Nature of the assay: two-hybrid library CCNG1.

A further assay has as its target T34, 4H908-bN.
T34 chain: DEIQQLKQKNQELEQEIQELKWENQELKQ
Nature of the assay: two-hybrid library CCNG1.

In another assay the target is T35, 4H883-bN.
T35 chain: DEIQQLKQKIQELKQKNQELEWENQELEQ
Nature of the assay: two-hybrid library CCNG1.

In the next assay the target is T36, 4H72-bN.
T36 chain: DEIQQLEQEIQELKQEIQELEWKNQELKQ
In words: two-hybrid library CCNG1.

In a further assay the target is T37, 4H687-bN.
T37 chain: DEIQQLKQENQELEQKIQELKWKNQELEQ
In words: two-hybrid library CCNG1.

Another assay deals with T38, 4H584-bH.
T38 chain: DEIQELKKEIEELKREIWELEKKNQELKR
Nature of the assay: two-hybrid library CCNG1.

A further assay addresses T39, 4H619-bH.
T39 chain: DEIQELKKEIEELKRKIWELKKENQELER
Nature of the assay: two-hybrid library CCNG1.

Another assay concerns the target T40, 4H3638-bH.
T40 chain: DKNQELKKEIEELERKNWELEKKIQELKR
Nature of the assay: two-hybrid library CCNG1.

A further assay deals with T41, 4H3613-bH.
T41 chain: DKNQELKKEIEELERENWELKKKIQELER
In words: two-hybrid library CCNG1.

The text below walks through data of paper PMC10397247.

B1: P8SHb (peptide)
chain: DKIEELKRENRELERKIRELKRENEYLER
On to B1, for which the interaction score with P8SHb was -0.644; in the assay with P9SHb, 0.191.

B2: 4H3628-bH (peptide)
chain: DKNQELKKEIEELERKIWELKKENQELKR
B2: the interaction score with 4H626-bH is -0.0728; with 4H3858-bH, 0.42; with 4H850-bH, 0.701; with 4H591-bH it was 0.0937; in the assay with 4H906-bH, -0.107; with 4H3628-bH it was 0.896. Also, the interaction score with 4H3974-bH was 1.22; in the assay with 4H3926-bH, 0.588; with 4H570-bH, -1.36; with 4H3817-bH it was 0.965.

B3: 4H2931-bH (peptide)
chain: DKIQELKKKIEELKRKNWELEKENQELER
Regarding B3, the interaction score in the assay with 4H349-bH was -0.83; in the assay with 4H2931-bH, -0.492; with 4H3041-bH it was -0.279; in the assay with 4H3381-bH it was -0.508; with 4H949-bH, -0.384; in the assay with 4H730-bH it was -0.532. Also, the interaction score was -0.865 with 4H796-bH, 0.571 with 4H3297-bH, -0.623 with 4H56-bH and -0.507 in the assay with 4H3364-bH.

B4: O6 (peptide)
chain: KNAALKAKIAALKYENAALEAKIAALKG
In the case of B4, the interaction score in the assay with O9 was -2.41; in the assay with O6 it was -2.7; with O7, -2.72; with O8, -1.78.

B5: 4H607-bN (peptide)
chain: DEIQQLKQEIQELKQENQELKWKNQELEQ
Take B5: the interaction score with P8SHb is -1.61; with 4H797-bN, -0.52; with 4H717-bN, -1.11; with 4H967-bN, -0.227; in the assay with 4H953-bN it was -1.56; with 4H607-bN, 0.145. Besides, the interaction score with 4H754-bN is -1.32; in the assay with 4H918-bN, 0.0461; with 4H908-bN it was -0.294; in the assay with 4H883-bN it was -0.644; in the assay with 4H72-bN it was -1.65; in the assay with 4H687-bN, -1.48.

B6: 4H3638-bH (peptide)
chain: DKNQELKKEIEELERKNWELEKKIQELKR
For B6, the interaction score in the assay with 4H850-bH is 1.04; with 4H906-bH, -0.762; with 4H584-bH, -0.722; in the assay with 4H3974-bH it was -0.916; in the assay with 4H619-bH it was -1.47; with 4H570-bH it was -0.4. The values for the interaction score in the assay with 4H3817-bH and in the assay with 4H3638-bH were -0.0824 and -1.34, respectively.

B7: 4H3613-bH (peptide)
chain: DKNQELKKEIEELERENWELKKKIQELER
Turning to B7, the interaction score in the assay with 4H626-bH is -1.94; in the assay with 4H3858-bH, 0.0148; in the assay with 4H850-bH, 1.37; in the assay with 4H591-bH it was -2.09; with 4H906-bH, -1.07; with 4H3628-bH, -0.609. The interaction score with 4H3613-bH was 0.898; in the assay with 4H3974-bH, -1.15; with 4H3926-bH, 1.59; with 4H570-bH, -0.821; with 4H3817-bH it was -0.0066.
